Changes are numbered by the printed parent chain. Names may count otherwise.
Test system: engineered chimeric receptor SEQ ID NO: 33 and its mutants (human α7-nAChR ligand binding domain / human GlyRα1 ion pore domain) in Lenti-X 293T cells
Test: YFP fluorescence quenching anion reporter plate reader assay (percent quench, EC50)
Type: cell-based
Conditions: for YFP fluorescence quenching using CNL001 (percent quench): receptor named in row; for YFP fluorescence quenching using Facinicline, 30 nM fac: ligand Facinicline 30 nM; for YFP fluorescence quenching using Facinicline, 300 nM fac: ligand Facinicline 300 nM; for YFP fluorescence quenching using Facinicline, 30 uM fac: ligand Facinicline 30 uM; for YFP fluorescence quenching using TC-6987, 1 uM tc6987: ligand TC-6987 1 uM; for YFP fluorescence quenching using TC-6987, 10 uM tc6987: ligand TC-6987 10 uM; for YFP fluorescence quenching using TC-6987, 500 uM tc6987: ligand TC-6987 500 uM; for YFP fluorescence quenching using Varenicline, 3 nM var: ligand Varenicline 3 nM; for YFP fluorescence quenching using Varenicline, 30 nM var: ligand Varenicline 30 nM; for YFP fluorescence quenching using Varenicline, 300 nM var: ligand Varenicline 300 nM; for YFP fluorescence quenching using Varenicline, 500 nM var: ligand Varenicline 500 nM; for YFP fluorescence quenching using Varenicline, 1 uM var: ligand Varenicline 1 uM
In short: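 Percent quench compares mean YFP signal over the final 10 s with the 15 s baseline before ligand, added in iodide-containing extracellular solution (pH 7.2). Cells were LX293T carrying a YFP anion reporter, transiently transfected with the channel construct; plates were preincubated 30 min at 37 °C.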

[1] = 1 nM CNL001, first column so headed
[2] = 1 nM CNL001, second column so headed
[3] = 3 nM brd (TC-5619/Bradanicline)
[4] = 10 nM CNL001, first column so headed
[5] = 10 nM CNL001, second column so headed
[6] = 30 nM brd (TC-5619/Bradanicline)
[7] = 50 nM CNL001, first column so headed
[8] = 50 nM CNL001, second column so headed
[9] = 100 nM CNL001, first column so headed
[10] = 100 nM CNL001, second column so headed
[11] = 300 nM brd (TC-5619/Bradanicline)
[12] = 1 uM CNL001, first column so headed
[13] = 1 uM CNL001, second column so headed

B1: CODA333: engineered receptor: L131S in SEQ ID NO: 33 (protein)
chain: MRCSPGGVWLALAASLLHVSLQGEFQRKLYKELVKNYNPLERPVANDSQPLTVYFSLSLLQIMDVDEKNQVLTTNIWLQMSWTDHYLQWNVSEYPGVKTVRFPDGQIWKPDILLYNSADERFDATFHTNVSVNSSGHCQYLPPGIFKSSCPMDLKNFPMDVQTCKLKFGSWSYGGWSLDLQMQEADISGYIPNGEWDLVGIPGKRSERFYECCKEPYPDVTFTVTMRRRMGYYLIQMYIPSLLIVILSWISFWINMDAAPARVGLGITTVLTMTTQSSGSRASLPKVSYVKAIDIWMAVCLLFVFSALLEYAAVNFVSRQHKELLRFRRKRRHHKSPMLNLFQEDEAGEGRFNFSAYGMGPACLQAKDGISVKGANNSNTTNPPPAPSKSPEEMRKLFIQRAKKIDKISRIGFPMAFLIFNMFYWIIYKIVRREDVHNQ
modifications: synthetic sequence of chimeric LGIC
YFP fluorescence quenching using CNL001 (percent quench) [1]: 76.165% | YFP fluorescence quenching using CNL001 (percent quench) [2]: 78.463% | YFP fluorescence quenching using TC-5619/Bradanicline (percent quench) (1 nM brd (TC-5619/Bradanicline)): −0.85% | YFP fluorescence quenching using TC-5619/Bradanicline (percent quench) [3]: −2.05% | YFP fluorescence quenching using CNL001 (percent quench) [4]: 79.349% | YFP fluorescence quenching using CNL001 (percent quench) [5]: 78.238% | YFP fluorescence quenching using TC-5619/Bradanicline (percent quench) (10 nM brd (TC-5619/Bradanicline)): −2.8% | YFP fluorescence quenching using TC-6683 (percent quench) (30 nM TC-6683): −23.88% | YFP fluorescence quenching using TC-5619/Bradanicline (percent quench) [6]: −2.07% | YFP fluorescence quenching using CNL001 (percent quench) [7]: 80.221% | YFP fluorescence quenching using CNL001 (percent quench) [8]: 81.789% | YFP fluorescence quenching using ABT-126 (percent quench) (50 nM abt (ABT-126)): −20.99% | YFP fluorescence quenching using CNL001 (percent quench) [9]: 81.855% | YFP fluorescence quenching using CNL001 (percent quench) [10]: 80.766% | YFP fluorescence quenching (percent quench) (100 nM CNL002): −15.44% | YFP fluorescence quenching using ABT-126 (percent quench) (100 nM abt (ABT-126)): −16.21% | YFP fluorescence quenching using AZD-0328 (percent quench) (100 nM azd0328): 38.49% | YFP fluorescence quenching using TC-5619/Bradanicline (percent quench) (100 nM brd (TC-5619/Bradanicline)): 30.34% | YFP fluorescence quenching using TC-6683 (percent quench) (300 nM TC-6683): −21.46% | YFP fluorescence quenching using ABT-126 (percent quench) (300 nM abt (ABT-126)): −13.34% | YFP fluorescence quenching using AZD-0328 (percent quench) (300 nM azd0328): 67.13% | YFP fluorescence quenching using TC-5619/Bradanicline (percent quench) [11]: 50.56% | YFP fluorescence quenching using CNL001 (percent quench) [12]: 81.707% | YFP fluorescence quenching using CNL001 (percent quench) [13]: 82.665% | YFP fluorescence quenching (percent quench) (1 uM CNL002): 15.21% | YFP fluorescence quenching using ABT-126 (percent quench) (1 uM abt (ABT-126)): 4.96% | YFP fluorescence quenching using TC-5619/Bradanicline (percent quench) (1 uM brd (TC-5619/Bradanicline)): 72.42% | YFP fluorescence quenching using TC-6683 (percent quench) (3 uM TC-6683): −21.07% | YFP fluorescence quenching (percent quench) (10 uM ach (acetylcholine)): −10.11% | YFP fluorescence quenching using TC-6683 (percent quench) (30 uM TC-6683): −16.15% | YFP fluorescence quenching using AZD-0328 (percent quench) (30 uM azd0328): 80.61% | YFP fluorescence quenching using TC-6683 (percent quench) (100 uM TC-6683): −18.96% | YFP fluorescence quenching (percent quench) (100 uM ach (acetylcholine)): −10.05% | YFP fluorescence quenching (percent quench) (1 mM ach (acetylcholine)): 32.11% | YFP fluorescence quenching (percent quench) (3 mM ach (acetylcholine)): 57.37% | YFP fluorescence quenching using Facinicline, 30 nM fac: 6.27 | YFP fluorescence quenching using Facinicline, 300 nM fac: 69.8 | YFP fluorescence quenching using Facinicline, 10 uM fac (ligand Facinicline 10 uM): 80.07 | YFP fluorescence quenching using Facinicline, 30 uM fac: 81.35 | YFP fluorescence quenching using TC-6987, 1 uM tc6987: −3.87 | YFP fluorescence quenching using TC-6987, 3 uM tc6987 (ligand TC-6987 3 uM): −20.2 | YFP fluorescence quenching using TC-6987, 5 uM tc6987 (ligand TC-6987 5 uM): −15.25 | YFP fluorescence quenching using TC-6987, 10 uM tc6987: 4.92 | YFP fluorescence quenching using TC-6987, 30 uM tc6987 (ligand TC-6987 30 uM): 14.75 | YFP fluorescence quenching using TC-6987, 50 uM tc6987 (ligand TC-6987 50 uM): 21.33 | YFP fluorescence quenching using TC-6987, 100 uM tc6987 (ligand TC-6987 100 uM): 29.7 | YFP fluorescence quenching using TC-6987, 300 uM tc6987 (ligand TC-6987 300 uM): 20.79 | YFP fluorescence quenching using TC-6987, 500 uM tc6987: 44.37 | YFP fluorescence quenching using Varenicline, 3 nM var (first column): −4.782 | YFP fluorescence quenching using Varenicline, 3 nM var (second column): 1.048 | YFP fluorescence quenching using Varenicline, 30 nM var (first column): 2.084 | YFP fluorescence quenching using Varenicline, 30 nM var (second column): 5.022 | YFP fluorescence quenching using Varenicline, 300 nM var (first column): 12.162 | YFP fluorescence quenching using Varenicline, 300 nM var (second column): 12.979 | YFP fluorescence quenching using Varenicline, 500 nM var (first column): 29.238 | YFP fluorescence quenching using Varenicline, 500 nM var (second column): 25.614 | YFP fluorescence quenching using Varenicline, 1 uM var (first column): 43.863 | YFP fluorescence quenching using Varenicline, 1 uM var (second column): 39.346

B2: CODA334: engineered receptor: L131Q in SEQ ID NO: 33 (protein)
chain: B1 chain with S131Q
modifications: synthetic sequence of chimeric LGIC
YFP fluorescence quenching using CNL001 (percent quench) [1]: 76.165% | YFP fluorescence quenching using CNL001 (percent quench) [2]: 78.463% | YFP fluorescence quenching using TC-5619/Bradanicline (percent quench) [3]: 41.92% | YFP fluorescence quenching using CNL001 (percent quench) [4]: 79.349% | YFP fluorescence quenching using CNL001 (percent quench) [5]: 78.238% | YFP fluorescence quenching using TC-6683 (percent quench) (30 nM TC-6683): −17.99% | YFP fluorescence quenching using TC-5619/Bradanicline (percent quench) [6]: 63.65% | YFP fluorescence quenching using CNL001 (percent quench) [7]: 80.221% | YFP fluorescence quenching using CNL001 (percent quench) [8]: 81.789% | YFP fluorescence quenching using ABT-126 (percent quench) (50 nM abt (ABT-126)): 23.65% | YFP fluorescence quenching using CNL001 (percent quench) [9]: 82% | YFP fluorescence quenching using CNL001 (percent quench) [10]: 80.766% | YFP fluorescence quenching (percent quench) (100 nM CNL002): 49.9% | YFP fluorescence quenching using ABT-126 (percent quench) (100 nM abt (ABT-126)): 61.83% | YFP fluorescence quenching using AZD-0328 (percent quench) (100 nM azd0328): 80.55% | YFP fluorescence quenching using TC-6683 (percent quench) (300 nM TC-6683): −23.26% | YFP fluorescence quenching using ABT-126 (percent quench) (300 nM abt (ABT-126)): 76.44% | YFP fluorescence quenching using AZD-0328 (percent quench) (300 nM azd0328): 83.15% | YFP fluorescence quenching using TC-5619/Bradanicline (percent quench) [11]: 64.85% | YFP fluorescence quenching using CNL001 (percent quench) [12]: 81.707% | YFP fluorescence quenching using CNL001 (percent quench) [13]: 82.665% | YFP fluorescence quenching (percent quench) (1 uM CNL002): 80.72% | YFP fluorescence quenching using ABT-126 (percent quench) (1 uM abt (ABT-126)): 77.68% | YFP fluorescence quenching using TC-6683 (percent quench) (3 uM TC-6683): −18.84% | YFP fluorescence quenching (percent quench) (10 uM ach (acetylcholine)): −2.63% | YFP fluorescence quenching (percent quench) (30 uM CNL002): 80.97% | YFP fluorescence quenching using TC-6683 (percent quench) (30 uM TC-6683): −16.92% | YFP fluorescence quenching (percent quench) (30 uM ach (acetylcholine)): 30.06% | YFP fluorescence quenching using AZD-0328 (percent quench) (30 uM azd0328): 82.53% | YFP fluorescence quenching using TC-6683 (percent quench) (100 uM TC-6683): −15.59% | YFP fluorescence quenching (percent quench) (100 uM ach (acetylcholine)): 71.27% | YFP fluorescence quenching (percent quench) (1 mM ach (acetylcholine)): 79.66% | YFP fluorescence quenching (percent quench) (3 mM ach (acetylcholine)): 74.9% | YFP fluorescence quenching using Facinicline, 30 nM fac: 83.07 | YFP fluorescence quenching using Facinicline, 100 nM fac (ligand Facinicline 100 nM): 85.36 | YFP fluorescence quenching using Facinicline, 300 nM fac: 84.19 | YFP fluorescence quenching using Facinicline, 30 uM fac: 82.75 | YFP fluorescence quenching using TC-6987, 1 uM tc6987: 74.1 | YFP fluorescence quenching using TC-6987, 10 uM tc6987: 81.7 | YFP fluorescence quenching using TC-6987, 500 uM tc6987: 80.18 | YFP fluorescence quenching using Varenicline, 3 nM var (first column): −5.192 | YFP fluorescence quenching using Varenicline, 3 nM var (second column): −4.327 | YFP fluorescence quenching using Varenicline, 30 nM var (first column): −0.688 | YFP fluorescence quenching using Varenicline, 30 nM var (second column): 0.672 | YFP fluorescence quenching using Varenicline, 300 nM var (first column): 75.189 | YFP fluorescence quenching using Varenicline, 300 nM var (second column): 74.923 | YFP fluorescence quenching using Varenicline, 500 nM var (first column): 79.048 | YFP fluorescence quenching using Varenicline, 500 nM var (second column): 80.337 | YFP fluorescence quenching using Varenicline, 1 uM var (first column): 79.766 | YFP fluorescence quenching using Varenicline, 1 uM var (second column): 76.836

— patent publication US20250152742A1, “COMPOSITIONS AND METHODS FOR NEUROLOGICAL DISEASES” (Trames Bio, Inc., priority 2022, published 2025)
